Test results: patent US6635429B1, “Heterodimeric nuclear receptors proteins, genes encoding same, and usage thereof” (Institut National de la Sante et de la Recherche Medicale, dated 1993)

Biological target: the molecule itself
Experiment: cell-based or functional assay

B1: human RARα1 (a.a. 1 to 462) (receptor)
chain: MASNSSSCPTPGGGHLNGYPVPPYAFFFPPMLGGLSPPGALTTLQHQLPVSGYSTPSPATIETQSSSSEEIVPSPPSPPPLPRIYKPCFVCQDKSSGYHYGVSACEGCKGFFRRSIQKNMVYTCHRDKNCIINKVTRNRCQYCRLQKCFEVGMSKESVRNDRNKKKKEVPKPECSESYTLTPEVGELIEKVRKAHQETFPALCQLGKYTTNNSSEQRVSLDIDLWDKFSELSTKCIIKTVEFAKQLPGFTTLTIADQITLLKAACLDILILRICTRYTPEQDTMTFSDGLTLNRTQMHNAGFGPLTDLVFAFANQLLPLEMDDAETGLLSAICLICGDRQDLEQPDRVDMLQEPLLEALKVYVRKRRPSRPHMFPKMLMKITDLRSISAKGAERVITLKMEIPGSMPPLIQEMLENSEGLDTLSGQPGGGGRDGGGLAPPPGSCSPSLSPSSNRSSPATHSP
OMPdecase activity of the DR5-URA3 reporter in yeast: ~5 fold
